From patent US20260098102A1 (NATIONAL UNIVERSITY CORPORATION KOBE UNIVERSITY, published 2026)

T1: monkey SIRPA protein (cynomolgus monkey, UniProt P78324 31-504 (human entry))
T1 construct: Expressed on 293α cells from pcDNA3.2 V5-DEST or pFLAG V5-DEST vectors; also called cynomolgus monkey SIRPA; cSIRPA
T1 chain: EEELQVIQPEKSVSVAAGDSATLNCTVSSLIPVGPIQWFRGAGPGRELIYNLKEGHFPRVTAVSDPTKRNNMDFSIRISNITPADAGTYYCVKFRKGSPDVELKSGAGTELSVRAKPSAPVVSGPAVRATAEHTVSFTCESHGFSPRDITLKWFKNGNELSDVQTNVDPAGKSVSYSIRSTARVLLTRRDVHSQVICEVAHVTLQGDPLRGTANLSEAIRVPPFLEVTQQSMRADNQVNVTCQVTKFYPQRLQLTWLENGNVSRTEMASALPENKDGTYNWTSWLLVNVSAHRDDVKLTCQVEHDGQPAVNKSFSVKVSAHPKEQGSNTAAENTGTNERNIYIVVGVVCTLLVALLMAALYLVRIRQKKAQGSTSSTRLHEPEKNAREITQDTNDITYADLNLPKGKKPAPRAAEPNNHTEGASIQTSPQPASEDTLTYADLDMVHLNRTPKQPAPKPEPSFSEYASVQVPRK

B1: human chimeric anti-SIRPA antibody cF63 (antibody, human IgG4 S228P, lambda, F234A L235A, V domains shown)
VH: QVQLKESGPGLVQPSETLSLTCTVSGFSLASYSLSWVRQPSGKGPEWMGRMYYDGDTAYNSALKSRLSISRDTSKNQVFLKMNSLQTDDTGTYYCTRDRSMFGTDYPHWYFDFWGPGTMVTVSS
VL: QFTLTQPKSVSGALRSTITIPCERSSGDIGDSYVSWYQRHLGRPPINVIYADDQRPSEVSDRFSGSIDSSSNSASLTITNLQMDDEADYFCQSYDSKIDIFGGGTKLTVLG
notes: Human IgG4proFALA heavy chain, human lambda light chain; also called cF63 (IgG4pf); human chimeric antibody F63
B2: OSE-172 (antibody, human IgG4 S228P, kappa, V domains shown)
VH: EVQLVQSGAEVKKPGESLRISCKASGYSFTSYWVHWVRQMPGKGLEWMGNIDPSDSDTHYSPSFQGHVTLSVDKSISTAYLQLSSLKASDTAMYYCVRGGTGTLAYFAYWGQGTLVTVSS
VL: DVVMTQSPLSLPVTLGQPASISCRSSQSLVHSYGNTYLYWFQQRPGQSPRLLIYRVSNRFSGVPDRFSGSGSGTDFTLKISRVEAEDVGVYYCFQGTHVPYTFGGGTKVEIKR
notes: IgG4Pro heavy chain

What was measured:
monkey SIRPA protein = target: T1, monkey SIRPA protein; assay: cell-based ELISA on 293α cells expressing FLAG-tagged monkey SIRPA; Abs 490 normalized to FLAG tag
SIRPA_V1_IgV [1] = target: T2, SIRPA_V1_IgV (human, UniProt P78324 31-149); assay: SPR Biacore T200, antibody captured, SIRPA_V1_IgV as analyte, 1:1 model
T2 construct: Secreted recombinant protein from FreeStyle 293F cells
T2 sequence (P78324 other isoform, or with tags, fused parts or gaps limits assumed): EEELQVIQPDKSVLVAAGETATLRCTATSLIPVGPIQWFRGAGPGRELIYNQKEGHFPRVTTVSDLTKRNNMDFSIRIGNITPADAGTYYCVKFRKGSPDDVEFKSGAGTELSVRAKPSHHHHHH
Experimental: The dissociation constants of the cD13, cF44, and cF63 prepared in Example 4 against the human SIRPA_V1_IgV prepared in Example 1 were determined by a capture method comprising capturing a human chimeric antibody as a ligand and measuring an antigen as an analyte, using Biacore T200 (GE Healthcare Bioscience Corp.). HBS-EP+ (GE Healthcare Bioscience Corp.) was used as a running buffer, and CM5 (GE Healthcare Bioscience Corp.) was used as a sensor chip. In an amount of 1 μg/mL human chimeric antibody was added onto a chip at a rate of 10 μL/min for 60 seconds, a serially diluted solution of human SIRPA protein as an antigen (0.5 to 8 μg/mL) was added at a flow rate of 30 μL/min for 120 seconds, and the dissociation phase continued to be monitored for 600 seconds. As a regenerant, 3 M magnesium chloride (GE Healthcare Bioscience Corp.) was added at a flow rate of 20 μL/min for 30 seconds. For data analysis, the binding rate constant (ka), dissociation rate constant (kd), and dissociation constant (KD; KD=kd/ka) were calculated using a 1:1 binding model.

human SIRPA_V2 protein = target: T3, human SIRPA_V2 protein (human, UniProt P78324 31-504); assay: blocking cell-based ELISA: peroxidase-labeled CD47-Fc (10,000 ng/mL) on 293α cells expressing SIRPA_V2; y axis = CD47-Fc signal in % of no antibody [ii]
T3 construct: Expressed on 293α cells from pcDNA3.2 V5-DEST or pFLAG V5-DEST (FLAG-tagged) vectors; also called human SIRPA Variant 2; ECD variant (full-length, amino acids 1 to 504)

human SIRPA_V1 protein [2] = target: T4, human SIRPA_V1 protein (human, UniProt P78324 31-504); assay: blocking cell-based ELISA: peroxidase-labeled CD47-Fc (10,000 ng/mL) on 293α cells expressing SIRPA_V1; y axis = CD47-Fc signal in % of no antibody [i]
T4 construct: Expressed on 293α cells from pcDNA3.2 V5-DEST or pFLAG V5-DEST (FLAG-tagged) vectors; also called human SIRPA Variant 1; hSIRPA V1
Experimental: After the culture supernatant of the human SIRPA and monkey SIRPA expression vector-introduced 293α cells prepared in Examples 5)-1 and 5)-2, respectively, was removed, 50 μL per well of cD13 (IgG2 and IgG4pf), cF44 (four different constant regions IgG1, IgG2, IgG4p, and IgG4pf), and cF63 (IgG2 and IgG4pf) diluted with 5% FBS-containing PBS to final concentrations of 0 to 10,000 ng/mL were added to each of pcDNA3.2 V5-DEST-SIRPA_V1, pcDNA3.2 V5-DEST-monkey SIRPA, and pcDNA3.2 V5-DEST-introduced 293α cells, immediately followed by addition of 50 μL per well of peroxidase-labeled CD47-Fc prepared in 5% FBS-containing PBS at a final concentration of 10,000 ng/ml, and the mixture was allowed to stand at 4° C. for one hour. Thereafter, the SIRPA-CD47 binding inhibitory activity was evaluated in the same manner as in 1)-6-3.

human SIRPA_V1 protein [3] = target: T4, human SIRPA_V1 protein; assay: cell-based ELISA on 293α cells expressing FLAG-tagged SIRPA_V1; Abs 490 normalized to FLAG tag
Experimental: The 293α cells [described in Example 1)-6] were prepared in a 10% FBS-containing DMEM medium to 5×10⁵ cells/mL. pFLAG V5-DEST-SIRPA_V1, pFLAG V5-DEST-SIRPA_V2, or pFLAG V5-DEST was introduced into the cells using Lipofectamine LTX (Invitrogen), followed by addition of 100 μL per well to a 96-well plate (Corning Incorporated), and cells were cultured overnight in the 10% FBS-containing DMEM medium at 37° C. under a 5% CO₂ condition. The obtained introduced cells were used for cell-based ELISA in a state that they adhered to each other. After the culture supernatant was removed, 50 μL per well of the cD13 (IgG2 and IgG4pf), cF44 (IgG1, IgG2, IgG4p, and IgG4pf), and cF63 (IgG2 and IgG4pf) antibodies prepared in Examples 3 and 4 were added to each of pFLAG V5-DEST-SIRPA_V1, pFLAG V5-DEST-SIRPA_V2, or pFLAG V5-DEST-introduced cells at final concentrations of 0 to 10,000 ng/mL, and the mixture was allowed to stand at 4° C. for one hour. Further, 50 μL per well of anti-FLAG M2 antibody (SIGMA) diluted with 5% FBS-containing PBS to a final concentration of 10,000 ng/mL was added to a well for detecting expression of each SIRPA construct, and the mixture was allowed to stand at 4° C. for one hour. The cells in the well were washed once with 5% FBS-containing PBS, followed by addition of Peroxidase AffiniPure F(ab′)₂ Fragment Goat Anti-Human IgG, Fcγ Fragment Specific (Jackson ImmunoResearch) diluted 1000-fold with 5% FBS-containing PBS, and the mixture was allowed to stand at 4° C. for one hour. The cells in the well were washed five times with 5% FBS-containing PBS, followed by addition of 100 μL per well of an OPD coloration solution [o-phenylenediamine dihydrochloride (Wako Pure Chemical Industries, Ltd.) and H₂O₂ were dissolved in an OPD solution (0.05 M trisodium citrate, 0.1 M disodium hydrogen phosphate dodecahydrate, pH 4.5) at 0.4 mg/mL and 0.6% (v/v), respectively]. A coloration reaction was performed with stirring occasionally, 100 μL per well of 1 M HCl was added to terminate the coloration reaction, and then absorbance at 490 nm was measured with a plate reader ARVO (PerkinElmer Inc.). Binding of the human chimeric anti-human SIRPA antibodies to each construct was standardized by expression of the FLAG tag.
Target sequence in this assay (P78324 31-504 limits assumed): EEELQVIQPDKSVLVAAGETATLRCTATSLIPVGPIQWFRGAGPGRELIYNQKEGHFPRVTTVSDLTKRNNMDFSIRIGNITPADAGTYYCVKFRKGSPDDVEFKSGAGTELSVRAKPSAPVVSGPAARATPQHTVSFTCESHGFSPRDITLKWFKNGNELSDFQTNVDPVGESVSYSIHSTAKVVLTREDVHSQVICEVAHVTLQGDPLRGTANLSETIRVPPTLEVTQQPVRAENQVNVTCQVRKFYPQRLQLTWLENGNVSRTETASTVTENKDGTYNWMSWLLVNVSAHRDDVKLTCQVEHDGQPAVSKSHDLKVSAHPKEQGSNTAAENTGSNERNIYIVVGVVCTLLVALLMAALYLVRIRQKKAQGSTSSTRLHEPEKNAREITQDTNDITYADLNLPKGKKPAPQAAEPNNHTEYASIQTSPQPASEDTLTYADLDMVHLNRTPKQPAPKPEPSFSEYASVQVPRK

human SIRPB = target: T5, human SIRPB (human, UniProt O00241 30-398); assay: flow cytometry on CHO-K1 cells expressing FLAG-tagged human SIRPB; PE anti-human IgG; MFI standardized to secondary antibody alone
T5 construct: whole, on cells; FLAG-tagged (pFLAG V5-DEST), on CHO-K1 cells; also called SIRPβ1; signal regulatory protein β1
T5 sequence (O00241 30-398): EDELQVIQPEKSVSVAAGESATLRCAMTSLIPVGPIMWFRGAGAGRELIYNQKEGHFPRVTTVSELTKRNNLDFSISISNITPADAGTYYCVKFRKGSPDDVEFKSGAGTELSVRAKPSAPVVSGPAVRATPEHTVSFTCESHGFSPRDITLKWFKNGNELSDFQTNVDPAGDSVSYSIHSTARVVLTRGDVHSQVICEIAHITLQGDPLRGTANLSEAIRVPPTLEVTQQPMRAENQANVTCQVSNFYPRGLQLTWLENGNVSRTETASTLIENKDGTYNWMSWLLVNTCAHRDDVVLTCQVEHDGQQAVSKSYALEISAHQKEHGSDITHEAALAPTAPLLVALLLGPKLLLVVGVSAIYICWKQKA
Experimental: SIRPβ1 (signal regulatory protein β1: the amino acid sequence thereof is published as RefSeq accession number NP_006056) and SIRPγ (signal regulatory protein γ: the amino acid sequence thereof is published as RefSeq accession number NP_061026) are molecules belonging to the SIRPA family. In the present invention, “SIRPα” may be referred to as “SIRPA,” “SIRPβ1” may be referred to as […] and “SIRPγ” may be referred to as “SIRPG.” CHO-K1 cells were prepared in a 10% FBS-containing Ham's F-12K medium at 3.3×10⁵ cells/mL and cultured overnight at 37° C. under a 5% CO₂ condition. pFLAG V5-DEST-human SIRPβ, pFLAG V5-DEST-human SIRPG, or pFLAG V5-DEST was introduced into the cells using Lipofectamine LTX (Invitrogen), and cells were cultured in a 10% FBS-containing Ham's F-12K medium at 37° C. under a 5% CO₂ condition for 24 hours. The obtained introduced cells were collected and seeded on a 96-well plate. After the culture supernatant was removed, 100 μL per well of various anti-human SIRPA antibodies or various control human IgG was added to each of various gene introduced cells at a final concentration of 0 to 10,000 ng/mL, and the mixture was allowed to stand at 4° C. for 25 minutes. After the mixture was centrifuged, the supernatant was removed, and cells were washed twice with 5% FBS-containing PBS. After the mixture was centrifuged, the supernatant was removed, 50 μL per well of a 1/400 diluted solution of PE Mouse anti-Human IgG antibody (BioLegend) was added, and the mixture was allowed to stand at 4° C. for 25 minutes. After the mixture was centrifuged, the supernatant was removed, and cells were washed twice with 5% FBS-containing PBS.
After the mixture was centrifuged, and the supernatant was removed, cells were suspended in 100 μL per well of 1× BD Stabilizing Fixative (Becton Dickinson), and the cell count was measured by flow cytometry (FACS Canto II: Becton Dickinson). For data analysis, FlowJo (TreeStar) was used. Cells were characterized by detecting forward scattered (FSC) light and side-scattered (SSC) light, and then the mean fluorescence intensity of PE was calculated. Binding of various antibodies to the family molecules was calculated by standardizing the fluorescence intensity using the mean fluorescence intensity of a sample in which the secondary antibody alone was allowed to react.

SIRPA_V1_IgV [4] = target: T2, SIRPA_V1_IgV; assay: SPR Biacore T200, antibody captured on anti-human IgG (Fc), SIRPA_V1_IgV as analyte (0.25 to 16 nM), 1:1 model
Experimental: The dissociation constants were measured by a capture method comprising capturing each antibody as a ligand to an Anti-Human IgG (Fc) antibody immobilized using Human Antibody Capture Kit (GE Healthcare Bioscience Corp.) and measuring an antigen as an analyte, using Biacore T200 (GE Healthcare Bioscience Corp.). HBS-EP+ (GE Healthcare Bioscience Corp.) was used as a running buffer, and CM5 (GE Healthcare Bioscience Corp.) was used as a sensor chip. Onto the chip, 2 μg/mL of various antibodies were added at 10 μL/min for 30 seconds, then a serially diluted solution (0.25 to 16 nM) of the human SIRPA protein as an antigen was added at a flow rate of 30 μL/min for 120 seconds, and subsequently the dissociation phase for 600 seconds was monitored. As a regenerant, 3 M magnesium chloride (GE Healthcare Bioscience Corp.) was added at a flow rate of 20 μL/min for 30 seconds. For data analysis, a binding rate constant (ka), a dissociation rate constant (kd), and a dissociation constant (KD; KD=kd/ka) were calculated using a 1:1 binding model.

human SIRPA_V1 protein [5] = target: T4, human SIRPA_V1 protein; assay: blocking cell-based ELISA: peroxidase-labeled CD47-Fc (1 µg/mL) on 293α cells expressing SIRPA_V1
Experimental: After the culture supernatant of the human SIRPA_V1 or V2 expression vector-introduced 293 cells prepared in Example 9)-1 was removed, 50 μL per well of various anti-SIRPA antibodies or various control Human IgG diluted with 5% FBS-containing PBS to a final concentration of 0 to 10,000 ng/ml was added to each of pcDNA3.2 V5-DEST-SIRPA_V1 or V2-introduced 293α cells, immediately followed by addition of 50 µL per well of peroxidase-labeled CD47-Fc prepared with 5% FBS-containing PBS at 1 μg/mL, and the mixture was allowed to stand at 4° C. for one hour. Thereafter, the SIRPA-CD47 binding inhibitory activity was evaluated in the same manner as in 1)-6-3.
Target sequence in this assay (P78324 31-504 limits assumed): as the sequence (P78324 31-504 limits assumed) above

Row | Binder | EC50 (read off the curve) (monkey SIRPA protein) | Kd (SIRPA_V1_IgV [1]) | IC50 (read off the curve) (human SIRPA_V2 protein) | IC50 (read off the curve) (human SIRPA_V1 protein [2]) | EC50 (read off the curve) (human SIRPA_V1 protein [3]) | EC50 (read off the curve) (human SIRPB) | Kd (SIRPA_V1_IgV [4]) | IC50 (human SIRPA_V1 protein [5])
1 | B1 | ~0.09 µg/mL | 0.166 nM | ~0.2 µg/mL | ~0.1 µg/mL | ~0.05 µg/mL | – | – | –
2 | B2 | – | – | – | – | – | ~0.04 µg/mL | 11.7 nM | 2.32 µg/mL
